Source: publication PMC10754087

Biological target: Yeast Hsp90 wildtype construct without the coiled-coil motif and without cysteine mutation (yeast) (UniProt P02829)
Test: neutron spin echo spectroscopy; Hsp90 wildtype at 50 mg mL^-1 (614 µM) in D2O buffer with 150 mM KCl, 10 mM MgCl2, 295 K; effective diffusion compared with rigid-body models of dimer and hexamer

Yeast Hsp90 wildtype construct without the coiled-coil motif and without cysteine mutation, P02829 1-709 (natural protein; other documents disagree on this pair)
stoichiometry N: 6
